Substitutions are numbered along the chain they refer to. Values belong to the binder of their own block, whether it stands above or below them.
Tests used:
[1] = target: T1, human CEA (CEACAM5) on tumor cells (human, UniProt P06731 35-702); test: cell-based or functional assay
T1 sequence (looked up): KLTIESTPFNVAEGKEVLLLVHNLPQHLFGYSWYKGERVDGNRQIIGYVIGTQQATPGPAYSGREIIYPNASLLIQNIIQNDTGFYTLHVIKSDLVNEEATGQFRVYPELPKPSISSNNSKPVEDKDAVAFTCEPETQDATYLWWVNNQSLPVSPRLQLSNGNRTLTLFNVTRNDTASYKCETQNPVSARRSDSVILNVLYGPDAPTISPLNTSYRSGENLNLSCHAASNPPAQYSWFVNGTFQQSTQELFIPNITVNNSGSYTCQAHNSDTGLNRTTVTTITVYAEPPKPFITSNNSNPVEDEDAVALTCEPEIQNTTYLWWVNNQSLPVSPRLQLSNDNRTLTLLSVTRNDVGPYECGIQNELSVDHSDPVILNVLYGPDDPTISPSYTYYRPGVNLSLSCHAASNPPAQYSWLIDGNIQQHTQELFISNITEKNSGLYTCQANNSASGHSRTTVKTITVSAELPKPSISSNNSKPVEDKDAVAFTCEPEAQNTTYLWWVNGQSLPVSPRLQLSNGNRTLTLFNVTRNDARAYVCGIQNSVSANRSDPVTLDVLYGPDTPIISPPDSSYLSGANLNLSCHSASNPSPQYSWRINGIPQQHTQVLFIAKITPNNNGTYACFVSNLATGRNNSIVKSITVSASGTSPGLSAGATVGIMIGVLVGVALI

Insulin (abs42019847) = target: T2, Insulin (abs42019847); test: ELISA, insulin coated on the plate, 100 nM antibody, anti-human IgG-HRP
T2 construct: Coated on the plate in the polyspecificity ELISA
Experimental: (§1) (1) Antigen coating: cardiolipin (Sigma, cat. C0563), keyhole limpet haemocyanin (KLH, Sigma, H8283), LPS (Sigma, L6529), ssDNA (Sigma, D8899), dsDNA (Sigma, D4522) and Insulin (abs42019847) were plated at 50 μg/mL, 5 μg/mL, 10 μg/mL, 1 μg/mL, 1 μg/mL, g/mL, and 50 μL per well, and incubated at 4° C. overnight;
(§2) (4) 50 μl anti-human IgG-HRP conjugate (Sigma, AP113P, 1:8000 dilution) was added to each well; the plate was incubated for 1 h at room temperature and washed 6 times with 0.05% PBST;

[2] = target: T1, human CEA (CEACAM5) on tumor cells; test: cell-based or functional assay; remark: listed apart in the source
[3] = target: the molecule itself; test: BLI self-interaction: antibody captured on AHQ anti-human Fc sensor, free sites blocked with human IgG, same antibody in solution
Experimental: The bispecific antibodies were diluted to 1 μM, and the proteins were coupled to the surface of the AHQ sensor chip in PBS, and the signal value was ˜0.8 nm. […] The experimental parameters are as follows: Baseline1: 60s, Loading: 180s, Loading response: 0.8 nm, Baseline2: 180s, Association: 240s, High sensitivity kinetics: 2 Hz.

[4] = target: T3, keyhole limpet haemocyanin (KLH, Sigma, H8283) (keyhole limpet, UniProt Q10583 17-3414; Q10584 20-3421, limits assumed); test: ELISA, KLH coated at 5 ug/mL, 100 nM antibody, anti-human IgG-HRP
T3 construct: Bought preparation coated on the plate in the polyspecificity ELISA
Experimental: as §1, §2

[5] = target: T4, human HER2 on tumor cells (human, UniProt P04626 23-1255); test: cell-based or functional assay
[6] = target: T5, recombinant tumor antigen human HER2 (ERBB2, ACRO systems, HE2-H5212) (human, UniProt P04626 23-652); test: BLI (Octet RED96e), antibody captured on AHC anti-human Fc sensor, HER2 as analyte, 30 C, 1:1 fit
T5 construct: Bought recombinant protein
Text: After the chip captures the bispecific antibodies, it was allowed to bind and dissociate with different concentrations of analytes to obtain the KD value of the interaction. The experimental parameters are as follows: Baseline1: 60s, Loading: 240s, Baseline2: 180s, Association: 240s, Dissociation: 600s, Loading Response: 1.9-2.1 (nm), High sensitivity kinetics: 2 Hz. Kinetic constants were derived based on 1:1 Langmuir binding to obtain equilibrium dissociation constants (KD).

[7] = target: T4, human HER2 on tumor cells; test: cell-based or functional assay; remark: listed apart in the source
[8] = target: T6, human EGFR on tumor cells (human, UniProt P00533 25-1210); test: cell-based or functional assay
[9] = target: T6, human EGFR on tumor cells; test: cell-based or functional assay; remark: listed apart in the source

Absorbance value (450 nm, polyspecificity ELISA) (Insulin (abs42019847)): 2.02
Absorbance value (450 nm, polyspecificity ELISA) [4]: 1.05
B1: bispecific antibody 101 (Fab-Knob+CEA-Hole) (bispecific antibody, human IgG4 S228P, kappa, F234A L235A)
heavy: EVKLLESGGGLVQPKGSLKLSCAASGFTFNTYAMNWVRQAPGKGLEWVARIRSKYNNYATYYADSVKDRFTISRDDSQSILYLQMNNLKTEDTAMYYCVRHGNFGNSYVSWFAYWGQGTLVTVSSASTKGPSVFPLAPCSRSTSESTAALGCLVKDYFPEPVTVSWNSGALTSGVHTFPAVLQSSGLYSLSSVVTVPSSSLGTKTYTCNVDHKPSNTKVDKRVESKYGPPCPPCPAPEAAGGPSVFLFPPKPKDTLMISRTPEVTCVVVDVSQEDPEVQFNWYVDGVEVHNAKTKPREEQFNSTYRVVSVLTVLHQDWLNGKEYKCKVSNKGLPSSIEKTISKAKGQPREPQVYTLPPCQEEMTKNQVSLWCLVKGFYPSDIAVEWESNGQPENNYKTTPPVLDSDGSFFLYSRLTVDKSRWQEGNVFSCSVMHEALHNHYTQKSLSLSL
chain: EVQLVESGGGFVQAGESLTLSCTSSTLTFTPYRMAWYRQAPGKQRDLVADISSGDGRTTNYADFAKGRFTISRDNIKNTVFLRMTNLKPEDTAVYYCNTFVSFVGIARSWGQGTQVTVSSESKYGPPCPPCPAPEAAGGPSVFLFPPKPKDTLMISRTPEVTCVVVDVSQEDPEVQFNWYVDGVEVHNAKTKPREEQFNSTYRVVSVLTVLHQDWLNGKEYKCKVSNKGLPSSIEKTISKAKGQPREPQVCTLPPSQEEMTKNQVSLSCAVKGFYPSDIAVEWESNGQPENNYKTTPPVLDSDGSFFLVSRLTVDKSRWQEGNVFSCSVMHEALHNRFTQKSLSLSL
light: QAVVTQESALTTSPGETVTLTCRSSTGAVTTSNYANWVQEKPDHLFTGLIGGTNKRAPGVPARFSGSLIGDKAALTITGAQTEDEAIYFCALWYSNLWVFGGGTKVEIKRTVAAPSVFIFPPSDEQLKSGTASVVCLLNNFYPREAKVQWKVDNALQSGNSQESVTEQDSKDSTYSLSSTLTLSKADYEKHKVYACEVTHQGLSSPVTKSFNRGEC
notes: Human IgG4 Fc with knob-into-hole, kappa light chain
EC50 of tumor cell killing, MCF-7 cells with human PBMC (E:T 10:1, 3 days, CCK8) [1]: 8010 pM
EC50 of tumor cell killing, MDA-MB-453 cells with human PBMC (E:T 10:1, 3 days, CCK8) [1]: 8350 pM
EC50 of tumor cell killing, N87 cells with human PBMC (E:T 10:1, 3 days, CCK8) [1]: 200 pM
EC50 of tumor cell killing, MDA-MB-468 cells with human PBMC (E:T 10:1, 3 days, CCK8) [2]: 1160 pM
EC50 of tumor cell killing, NCI-H1573 cells with human PBMC (E:T 10:1, 3 days, CCK8) [2]: 2.87 pM
EC50 of tumor cell killing, SK-OV-3 cells with human PBMC (E:T 10:1, 3 days, CCK8) [2]: 1000 pM
BLI-Response (self-interaction signal) [3]: 0.21 nm

Kd [6]: 13100 pM
koff [6]: 0.00349 s⁻¹
kon [6]: 266000 M⁻¹ s⁻¹
Absorbance value (450 nm, polyspecificity ELISA) (Insulin (abs42019847)): 1.52
Absorbance value (450 nm, polyspecificity ELISA) [4]: 1.45
B2: HER2-CD3 bispecific antibody 501 (bispecific antibody, human IgG4 S228P, kappa, F234A L235A)
heavy: B1 heavy
chain: QVQLVQSGGGLVQAGGSLRLSCAASGRTFSSYAMAWFRQAPGKEREFVAAISWSGANIYVADSVKGRFTISRDNAKDTVYLQMNSLKPEDTAVYYCAVKLGFAPVEERQYDYWGQGTQVTVSSESKYGPPCPPCPAPEAAGGPSVFLFPPKPKDTLMISRTPEVTCVVVDVSQEDPEVQFNWYVDGVEVHNAKTKPREEQFNSTYRVVSVLTVLHQDWLNGKEYKCKVSNKGLPSSIEKTISKAKGQPREPQVCTLPPSQEEMTKNQVSLSCAVKGFYPSDIAVEWESNGQPENNYKTTPPVLDSDGSFFLVSRLTVDKSRWQEGNVFSCSVMHEALHNRFTQKSLSLSL
light: B1 light
EC50 of tumor cell killing, MCF-7 cells with human PBMC (E:T 10:1, 3 days, CCK8) [5]: 8290 pM
EC50 of tumor cell killing, MDA-MB-453 cells with human PBMC (E:T 10:1, 3 days, CCK8) [5]: 4050 pM
EC50 of tumor cell killing, N87 cells with human PBMC (E:T 10:1, 3 days, CCK8) [5]: 1320 pM
EC50 of tumor cell killing, NCI-H157 cells with human PBMC (E:T 10:1, 3 days, CCK8) [5]: 36200 pM
EC50 of tumor cell killing, NCI-H441 cells with human PBMC (E:T 10:1, 3 days, CCK8) [5]: 152 pM
EC50 of tumor cell killing, MDA-MB-468 cells with human PBMC (E:T 10:1, 3 days, CCK8) [7]: 1790 pM
EC50 of tumor cell killing, NCI-H1573 cells with human PBMC (E:T 10:1, 3 days, CCK8) [7]: 40.5 pM
EC50 of tumor cell killing, NCI-H1650 cells with human PBMC (E:T 10:1, 3 days, CCK8) [7]: 1590 pM
EC50 of tumor cell killing, NCI-H2228 cells with human PBMC (E:T 10:1, 3 days, CCK8) [7]: 10200 pM
EC50 of tumor cell killing, SK-OV-3 cells with human PBMC (E:T 10:1, 3 days, CCK8) [7]: 19.8 pM
BLI-Response (self-interaction signal) [3]: 0.056 nm

Absorbance value (450 nm, polyspecificity ELISA) (Insulin (abs42019847)): 1.08
Absorbance value (450 nm, polyspecificity ELISA) [4]: 1.06
B3: EGFR-CD3 bispecific antibody 404 (bispecific antibody, human IgG4 S228P, kappa, F234A L235A)
chain: QVQLQESGGGSVQAGGSLKLSCAASGRGFSRYAMGWFRQAPGQDREFVATISWTNSTDYADSVKGRFAISRDNAKNTAYLQMNSLKPEDTAVYYCAADKWASSTRSIDYDYWGQGIQVTVSSESKYGPPCPPCPAPEAAGGPSVFLFPPKPKDTLMISRTPEVTCVVVDVSQEDPEVQFNWYVDGVEVHNAKTKPREEQFNSTYRVVSVLTVLHQDWLNGKEYKCKVSNKGLPSSIEKTISKAKGQPREPQVYTLPPCQEEMTKNQVSLWCLVKGFYPSDIAVEWESNGQPENNYKTTPPVLDSDGSFFLYSRLTVDKSRWQEGNVFSCSVMHEALHNHYTQKSLSLSL
heavy: B1 heavy with Y354C, C359S, W371S, L373A, Y412V, H440R, Y441F
light: B1 light
EC50 of tumor cell killing, MCF-7 cells with human PBMC (E:T 10:1, 3 days, CCK8) [8]: 84 pM
EC50 of tumor cell killing, N87 cells with human PBMC (E:T 10:1, 3 days, CCK8) [8]: 1470 pM
EC50 of tumor cell killing, NCI-H157 cells with human PBMC (E:T 10:1, 3 days, CCK8) [8]: 17700 pM
EC50 of tumor cell killing, NCI-H441 cells with human PBMC (E:T 10:1, 3 days, CCK8) [8]: 9.08 pM
EC50 of tumor cell killing, MDA-MB-468 cells with human PBMC (E:T 10:1, 3 days, CCK8) [9]: 0.0158 pM
EC50 of tumor cell killing, NCI-H1573 cells with human PBMC (E:T 10:1, 3 days, CCK8) [9]: 6.94 pM
EC50 of tumor cell killing, NCI-H1650 cells with human PBMC (E:T 10:1, 3 days, CCK8) [9]: 67.7 pM
EC50 of tumor cell killing, NCI-H2228 cells with human PBMC (E:T 10:1, 3 days, CCK8) [9]: 73.4 pM
EC50 of tumor cell killing, SK-OV-3 cells with human PBMC (E:T 10:1, 3 days, CCK8) [9]: 9.95 pM
BLI-Response (self-interaction signal) [3]: 0.062 nm

Absorbance value (450 nm, polyspecificity ELISA) (Insulin (abs42019847)): 2.88
Absorbance value (450 nm, polyspecificity ELISA) [4]: 1.08
B4: bispecific antibody 104 (CEA-Knob+Fab-Hole) (bispecific antibody, human IgG4 S228P, kappa, F234A L235A)
chain: B1 chain with C251Y, S256C, S268W, A270L, V309Y, R337H, F338Y
heavy: B1 heavy with Y354C, C359S, W371S, L373A, Y412V, H440R, Y441F
light: B1 light
notes: as for B1
EC50 of tumor cell killing, MCF-7 cells with human PBMC (E:T 10:1, 3 days, CCK8) [1]: 8630 pM
EC50 of tumor cell killing, MDA-MB-453 cells with human PBMC (E:T 10:1, 3 days, CCK8) [1]: 1960 pM
EC50 of tumor cell killing, N87 cells with human PBMC (E:T 10:1, 3 days, CCK8) [1]: 97.2 pM
EC50 of tumor cell killing, MDA-MB-468 cells with human PBMC (E:T 10:1, 3 days, CCK8) [2]: 672 pM
EC50 of tumor cell killing, NCI-H1573 cells with human PBMC (E:T 10:1, 3 days, CCK8) [2]: 3.84 pM
EC50 of tumor cell killing, SK-OV-3 cells with human PBMC (E:T 10:1, 3 days, CCK8) [2]: 987 pM
BLI-Response (self-interaction signal) [3]: 0.22 nm
